Reference: article PMC11665552, “Talin1 dysfunction is genetically linked to systemic capillary leak syndrome” (JCI Insight, 2024)

Molecular target: T1, WT talin1 R12-R13-DD (murine, UniProt P26039 2138-2541)
T1 construct: talin1, murine, rod domains R12 and R13 and the dimerization domain (DD), residues 2138-2541; also called WT-R12-R13-DD; R12-R13-DD WT
Assay: SEC; 100 uM talin and 100 uM Vd1 (1:1 ratio), Superdex 200 Increase 10/300 GL, room temperature (25°C)
Settings: both partners purified

T1 sequence (P26039 2138-2541): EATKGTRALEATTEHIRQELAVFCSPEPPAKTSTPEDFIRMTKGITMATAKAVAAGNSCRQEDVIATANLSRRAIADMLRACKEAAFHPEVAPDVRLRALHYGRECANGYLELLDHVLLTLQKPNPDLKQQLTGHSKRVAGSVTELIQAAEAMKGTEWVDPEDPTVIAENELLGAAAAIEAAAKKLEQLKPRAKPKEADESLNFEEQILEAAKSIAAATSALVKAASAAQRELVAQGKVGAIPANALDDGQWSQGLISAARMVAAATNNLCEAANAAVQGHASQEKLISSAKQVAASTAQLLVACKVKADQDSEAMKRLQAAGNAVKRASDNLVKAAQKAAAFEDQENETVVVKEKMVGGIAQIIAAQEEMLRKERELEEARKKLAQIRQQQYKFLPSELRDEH

B1: talin-binding domain 1 of vinculin (Vd1) (domain or fragment, chicken, UniProt P12003 1-258, looked up)
chain: MPVFHTRTIESILEPVAQQISHLVIMHEEGEVDGKAIPDLTAPVSAVQAAVSNLVRVGKETVQTTEDQILKRDMPPAFIKVENACTKLVRAAQMLQADPYSVPARDYLIDGSRGILSGTSDLLLTFDEAEVRKIIRVCKGILEYLTVAEVVETMEDLVTYTKNLGPGMTKMAKMIDERQQELTHQEHRVMLVNSMNTVKELLPVLISAMKIFVTTKNTKSQGIEEALKNRNFTVEKMSAEINEIIRVLQLTSWDEDAW
notes: vinculin, chicken, domain 1 (Vd1), residues 1-258; expressed from a pET-15b plasmid; also called vinculin Vd1 domain
**Q.** Does B1 bind?
**A.** Result: binds
